In patent US20200399364A1 (PHANES THERAPEUTICS, published 2020):
Residue numbers refer to the chain shown, from its start.

B1: humanized anti-CLDN18.2 mAb 5-E22-H1L1 (antibody, V domains shown)
VH: QVQLVQSGVEVKKPGASVKVSCKASGYTITDNYMHWVRQAPGQGLEWIGEIYPGSGNTYFNEKFKNRATLTADKSTTTAYMELKSLQFDDTAVYFCARGFPYYAMDYWGQGTTVTVSS
VL: EIVMTQSPATLSLSPGERATLSCHARQNINVWLSWYQQKPGQAPRLLIYKASNLHTGVPARFSGSGSGTDFTLTISSLEPEDFAVYYCQQGQNYPLTFGGGTKVEIK
notes: Humanized VH and VL fused to the constant regions of human IgG1 heavy chain and kappa light chain
B2: humanized anti-CLDN18.2 mAb 5-E22-H1L3 (antibody, V domains shown)
VH: B1 VH
VL: DIVMTQSPLSLPVTPGEPASISCHARQNINVWLSWYLQKPGQSPQLLIYKASNLHTGVPDRFSGSGSGTDFTLKISRVEAEDVGVYYCQQGQNYPLTFGQGTKVEIK
notes: as for B1
B3: humanized anti-CLDN18.2 mAb 5-E22-H3L2 (antibody, V domains shown)
VH: B1 VH with V9A, F60Y, N61A, T76I, T77S, K84S, S85R, Q87R, F88S, T113L
VL: B1 VL with M4L, V58I
notes: as for B1
B4: humanized anti-CLDN18.2 mAb 5-E22-H3L1 (antibody, V domains shown)
VH: B1 VH with V9A, F60Y, N61A, T76I, T77S, K84S, S85R, Q87R, F88S, T113L
VL: B1 VL
notes: as for B1
B5: humanized anti-CLDN18.2 mAb 5-E22-H1L2 (antibody, V domains shown)
VH: B1 VH
VL: B1 VL with M4L, V58I
notes: as for B1
B6: humanized anti-CLDN18.2 mAb 5-E22-H3L3 (antibody, V domains shown)
VH: B1 VH with V9A, F60Y, N61A, T76I, T77S, K84S, S85R, Q87R, F88S, T113L
VL: B2 VL
notes: as for B1
B7: humanized anti-CLDN18.2 mAb 2-C3-H1L1 (antibody, V domains shown)
VH: QVTLRESGPALVKPTQTLTLTCTASGFTFSSYGMSWVRQPPGKALEWVATISGGGSYTYYNPSLKDRFTISRDISANQLVLKVTNMDPADTATYFCARQSRGNAMDYWGQGTTVTVSS
VL: DIQMTQSPSTLSASVGDRVTITCKSSQSLLNSGNQKNYLTWYQQKPGKAPKLLIYWASTRESGVPSRFSGSGSGTAFTLTISSLQPDDFATYYCQNDYSYPLTFGGGTKVEIK
notes: as for B1
B8: humanized anti-CLDN18.2 mAb 6-J11-H1L1 (antibody, V domains shown)
VH: EVQLVESGGGLVQPGGSLRLSCAASGFIFSSFGMHWVRQAPGKGLEWVAYISSGRSTMYYADSVKGRFTISRDNSKNTLYLQMNSLTAEDTAVYYCARGGFYGNSLDYWGQGTLVTVSS
VL: B7 VL with T10S, Q27L, A76D, D87E, Y93S, D97A, G106Q
notes: as for B1
B9: humanized anti-CLDN18.2 mAb 6-J11-H2L1 (antibody, V domains shown)
VH: B8 VH with T87R, A88S
VL: B7 VL with T10S, Q27L, A76D, D87E, Y93S, D97A, G106Q
notes: as for B1
B10: humanized anti-CLDN18.2 mAb 2-C3-H2L1 (antibody, V domains shown)
VH: B7 VH with A24F, V37I, V48L, N61L, P62D, A76K, L79V, K82T
VL: B7 VL
notes: as for B1
B11: humanized anti-CLDN18.2 mAb 2-C3-H2L2 (antibody, V domains shown)
VH: B7 VH with A24F, V37I, V48L, N61L, P62D, A76K, L79V, K82T
VL: B7 VL with A76E
notes: as for B1
B12: humanized anti-CLDN18.2 mAb 2-C3-H1L2 (antibody, V domains shown)
VH: B7 VH
VL: B7 VL with A76E
notes: as for B1

The binders below were run against T1, human claudin 18.2 (CLDN18.2) (human) (assay: FACS on HEK293-CLDN18.2 stable pool, FITC-based detection).
T1 construct: also called claudin 18 variant 2; claudin-18a2.1
T1 sequence (chain, as listed by the source limits assumed): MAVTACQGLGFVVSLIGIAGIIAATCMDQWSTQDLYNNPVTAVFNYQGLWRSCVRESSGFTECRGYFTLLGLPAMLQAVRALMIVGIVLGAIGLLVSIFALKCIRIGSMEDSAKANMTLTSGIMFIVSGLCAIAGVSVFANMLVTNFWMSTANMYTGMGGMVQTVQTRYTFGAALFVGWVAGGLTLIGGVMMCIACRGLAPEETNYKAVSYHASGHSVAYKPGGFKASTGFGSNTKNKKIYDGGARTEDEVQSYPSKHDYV

For B1, which EC50 is on record?
Its EC50 is 0.059 µM.

With B2 as the binder, how does the EC50 read?
The EC50 was 0.061 µM.

Which EC50 does the source give for B3 here?
Its EC50 is 0.0194 µM.

For B4, which EC50 is on record?
Its EC50 is 0.0121 µM.

B5 was tested. Which EC50 did it give?
The EC50 was 0.259 µM.

How did the EC50 turn out when B6 was run?
The EC50 was 0.0147 µM.

How did the EC50 turn out when B7 was run?
The EC50 was 0.0098 µM.

B8 was tested. Which EC50 did it give?
Its EC50 is 0.0112 µM.

How did the EC50 turn out when B9 was run?
The EC50 was 0.0114 µM.

Which EC50 does the source give for B10 here?
Its EC50 is 0.0088 µM.

B11 was tested. Which EC50 did it give?
The EC50 was 0.008 µM.

B12 was tested. Which EC50 did it give?
Its EC50 is 0.0091 µM.
